Test results as given in publication PMC11407090, “Kinetic and in silico structural characterization of norbelladine O-methyltransferase of Amaryllidaceae alkaloids biosynthesis” (The Journal of Biological Chemistry, 2024).

Legend:
[1] = substrate: O=Cc1ccc(O)c(O)c1; experiment: LC-MS/MS methyltransferase assay, nonlinear regression; assay type: biochemical, Narcissus papyraceus; settings: SAM as methyl donor, Zn^2+, product vanillin (3-O-methylation, major product), optimized condition pH 7.4, 45 °C
From the text: (§1) LC-MS/MS methyltransferase assay, nonlinear regression on NpOMT

[2] = substrate: Oc1ccc(CCNCc2ccc(O)c(O)c2)cc1; experiment: as above; assay type: biochemical, Narcissus papyraceus; settings: SAM as methyl donor, Mg^2+, product 4'-O-methylnorbelladine, optimized condition pH 7.4, 45 °C, 30 min
From the text: as §1

B1: NpOMT (Narcissus papyraceus) (protein)
chain: MGASQDDYALIHKNILHSEELLKYILETSAYPREHEQLKGLREVTEKHEWSSALVPADEGLFLSMLLKLMNAKRTIEIGVYTGYSLLTTALALPEDGKITAIDVNKSFFEIGLPFIQKAGVEHKINFIESEALPVLDQMVQEMKEEDLYDYAFVDADKSNYANYHERLVKLVRVGGAILYDNTLWYGSVAYPEYPGLHPEEEVARLSFRQLNTLLAADPRVEISQVSIGDGVTICRRLY
notes: homodimer only modelled
B1 gave a Km [1] of 491 ± 51 µM, a Vmax [1] of 19.1 µM/min and a kcat [1] of 0.0637 ± 0.0025 s⁻¹. The kcat/Km [1] was 130 M⁻¹ s⁻¹, the Km [2] was 169 ± 19 µM and the Vmax [2] was 10.9 µM/min. For the same protein, the kcat [2] was 0.0362 ± 0.004 s⁻¹ and the kcat/Km [2] was 214 M⁻¹ s⁻¹.
